Experiments:
[1] = molecular target: T1, MLO-Y4 cell surface proteins (Mus musculus, UniProt P52825); assay: Crosslinking/co-immunoprecipitation/mass spectrometry (TMT quantitative proteomics) to identify irisin receptors; format: binding; details: co-precipitated protein Cpt2 (CPT2_MOUSE)
T1 construct: endogenous in cells; host or cells: MLO-Y4
T1 sequence (P52825 26-658): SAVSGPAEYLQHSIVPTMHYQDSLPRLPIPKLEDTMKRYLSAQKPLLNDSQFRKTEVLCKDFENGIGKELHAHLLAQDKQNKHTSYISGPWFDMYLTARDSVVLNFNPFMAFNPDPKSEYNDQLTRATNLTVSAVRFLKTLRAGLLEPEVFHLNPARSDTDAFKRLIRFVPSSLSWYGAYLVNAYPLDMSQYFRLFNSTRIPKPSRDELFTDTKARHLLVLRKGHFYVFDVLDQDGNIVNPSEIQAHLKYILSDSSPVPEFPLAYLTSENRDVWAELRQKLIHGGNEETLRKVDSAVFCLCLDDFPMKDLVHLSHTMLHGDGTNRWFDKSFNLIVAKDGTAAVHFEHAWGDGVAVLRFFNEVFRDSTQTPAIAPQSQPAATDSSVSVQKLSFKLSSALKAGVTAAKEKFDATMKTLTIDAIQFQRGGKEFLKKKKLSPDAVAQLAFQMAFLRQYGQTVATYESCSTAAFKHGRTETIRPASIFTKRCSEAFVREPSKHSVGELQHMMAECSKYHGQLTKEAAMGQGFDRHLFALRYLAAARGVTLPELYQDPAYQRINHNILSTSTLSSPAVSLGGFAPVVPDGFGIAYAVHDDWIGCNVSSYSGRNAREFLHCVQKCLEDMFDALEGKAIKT
Method in brief: (§1)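 Mouse MLO-Y4 cells were switched to serum-free FreeStyle medium for 4 h, chilled, then exposed to 10 nM His-tagged irisin (or adipsin as control) for 20 min. Cells were crosslinked with 1.5 mM DTSSP (30 min, ice), and bound proteins were pulled down on Ni-NTA and eluted with 250 mM imidazole. Eluates were separated by SDS-PAGE, trypsin-digested in gel, TMT 6-plex labelled and quantified by MS3-based LC-MS/MS on an Orbitrap Fusion Lumos.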

[2] = molecular target: T2, MLO-Y4 cell surface proteins (Mus musculus, UniProt Q921G7); assay: as above; format: binding; details: co-precipitated protein Etfdh (ETFD_MOUSE)
T2 construct: endogenous in cells; host or cells: MLO-Y4
T2 sequence (Q921G7 33-616): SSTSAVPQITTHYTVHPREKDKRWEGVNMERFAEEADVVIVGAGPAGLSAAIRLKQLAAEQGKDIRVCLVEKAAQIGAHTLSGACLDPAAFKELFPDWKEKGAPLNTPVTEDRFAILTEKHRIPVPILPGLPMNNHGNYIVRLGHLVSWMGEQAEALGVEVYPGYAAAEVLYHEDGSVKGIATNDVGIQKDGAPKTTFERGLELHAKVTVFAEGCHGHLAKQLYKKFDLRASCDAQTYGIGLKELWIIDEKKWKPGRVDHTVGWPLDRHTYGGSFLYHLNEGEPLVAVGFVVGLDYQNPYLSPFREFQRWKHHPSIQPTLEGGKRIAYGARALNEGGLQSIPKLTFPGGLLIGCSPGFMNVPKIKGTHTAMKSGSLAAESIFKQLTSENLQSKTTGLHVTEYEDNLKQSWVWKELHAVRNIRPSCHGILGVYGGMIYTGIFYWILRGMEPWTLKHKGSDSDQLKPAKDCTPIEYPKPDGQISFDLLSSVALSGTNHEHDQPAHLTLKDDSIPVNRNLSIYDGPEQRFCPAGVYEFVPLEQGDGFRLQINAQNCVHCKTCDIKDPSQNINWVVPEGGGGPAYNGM
Method in brief: as §1

TMT signal-to-noise ratio [1]: 177.54
TMT signal-to-noise ratio [2]: 57.6477
Substance: adipsin

— patent US20210063414A1, “METHODS FOR PREVENTING AND/OR TREATING BONE LOSS CONDITIONS BY MODULATING IRISIN” (Dana-Farber Cancer Institute, Inc., priority 2018, published 2021)
